Measurements taken from patent publication US20020012949A1, “Assay systems for leptin-enhancing agents” (priority 1997, published 2002).

Molecular target: T1, OB-RY986F (Homo sapiens, UniProt P48357, Y986F)
T1 construct: cells transfected with the full-length OB-R constructs; expressed in transfected cells; host or cells: COS-7
T1 sequence (P48357 22-1165 Y986F): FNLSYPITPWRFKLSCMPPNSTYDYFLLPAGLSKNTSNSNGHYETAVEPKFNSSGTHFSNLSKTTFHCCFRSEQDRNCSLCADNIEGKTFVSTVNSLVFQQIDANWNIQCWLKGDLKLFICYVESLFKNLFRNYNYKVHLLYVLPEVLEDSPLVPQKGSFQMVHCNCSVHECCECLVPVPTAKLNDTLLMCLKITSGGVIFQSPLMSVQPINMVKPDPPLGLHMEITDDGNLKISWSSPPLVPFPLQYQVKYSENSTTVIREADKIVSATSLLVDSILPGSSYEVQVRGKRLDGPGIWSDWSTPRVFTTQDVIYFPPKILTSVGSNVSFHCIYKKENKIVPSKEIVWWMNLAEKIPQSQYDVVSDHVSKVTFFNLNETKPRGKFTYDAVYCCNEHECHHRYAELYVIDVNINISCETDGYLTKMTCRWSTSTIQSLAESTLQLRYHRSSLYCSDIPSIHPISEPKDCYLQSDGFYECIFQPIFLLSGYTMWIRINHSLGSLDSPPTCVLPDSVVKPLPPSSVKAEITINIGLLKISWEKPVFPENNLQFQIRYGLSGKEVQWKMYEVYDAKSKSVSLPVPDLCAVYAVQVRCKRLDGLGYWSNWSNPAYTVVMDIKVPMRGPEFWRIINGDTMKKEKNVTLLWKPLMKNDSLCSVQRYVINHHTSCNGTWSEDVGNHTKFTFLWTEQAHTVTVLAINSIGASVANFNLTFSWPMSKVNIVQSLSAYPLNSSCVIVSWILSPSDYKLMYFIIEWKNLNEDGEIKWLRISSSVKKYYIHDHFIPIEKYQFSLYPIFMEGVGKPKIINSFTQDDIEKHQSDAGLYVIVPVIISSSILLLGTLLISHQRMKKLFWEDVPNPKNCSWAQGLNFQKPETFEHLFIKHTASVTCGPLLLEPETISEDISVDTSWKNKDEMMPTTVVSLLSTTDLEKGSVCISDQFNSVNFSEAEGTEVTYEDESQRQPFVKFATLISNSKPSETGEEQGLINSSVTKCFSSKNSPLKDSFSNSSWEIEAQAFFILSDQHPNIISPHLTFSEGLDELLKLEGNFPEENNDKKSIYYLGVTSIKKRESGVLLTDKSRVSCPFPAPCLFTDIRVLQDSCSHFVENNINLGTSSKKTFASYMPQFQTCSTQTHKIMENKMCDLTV
Test: Luciferase reporter gene assay (3(G3)-Cy6-LUC), leptin stimulation of COS cells expressing mutant OB-RY986F
Assay type: cell-based
Conditions: mutant receptor OB-RY986F, 100 ng/ml leptin for 24 hours
Description: The cytoplasmic domain and full-length human OB-R was cloned by PCR using human fetal liver and adipocyte cDNA (Clontech) and cloned into the expression vectors pCMX and pMT21. Chimeric receptors were constructed by fusing the extracellular domain and transmembrane domain of TrkC (amino acids 1 to 458) to the cytoplasmic domain of OB-R (amino acids 865-1165). A triple myc epitope tag was added at the C-terminus of all OB-R constructs (18). Truncation and point mutant constructs were generated by PCR and the sequences of all constructs were verified. Expression constructs were transfected into COS-7 cells using lipofectamine (GIBCO-BRL); 36-48 hours after transfection, cells were starved for either 2 hour,s for chimeric receptors or overnight for full-length receptors prior to stimulation.
Expression constructs (1 μg) for OB-R, OB-RY1141F, OB-RY986F, OB-RY1078, 1079F, and OB-RY986, 1141F were co-transfected with 1 μg of 3(G3)-Cy6-LUC and 0.1 μg of pCMX.LacZ into COS-7 cells (6-well dishes) using lipofectamine. The day after transfection, media was changed to serum-free OptiMEM (GIBCO-BRL) and then treated with 100 ng/ml murine leptin (PeproTech) or human leptin (R&D Systems) for 24 hours. […] Luciferase and β-galactosidase activities were measured in cell lysates (30) and luciferase activity was normalized to β-galactosidase activity to control for transfection differences. […]

In the case of “leptin: the product of the obese gene, secreted by adipocytes; ligand of OB-R”, the “increase in luciferase activity” value was 20 fold.
